Assays:
[1] = target: T1, HRGsingle peptide (single heparin-binding motif of histidine-rich glycoprotein) (human); test: ITC; 0.5 mM HRGsingle peptide titrated into 0.05 mM sHIPwt or sHIPqp, 20 mM MES pH 5.5, 25°C; one independent binding site model; conditions: both partners purified
T1 construct: also called GHHPHG; source: synthetic peptide (Biosyntan GmbH, Berlin)

[2] = target: the molecule itself; test: AUC; sedimentation velocity, 20°C, 50000 rpm, 20 mM MES pH 5.5; c(S) distribution compared with theoretical sedimentation coefficients (HYDROPRO)

B1: quadruple mutant protein sHIP, sHIPqp (natural protein)
chain: SMKQDQLIVEKMEQTYEAFSPKLANLIEALDAFKEHYEEYATLRNFYSSDEWFRLANQPWDDIPSGVLSEDLLFDMIGDHNQLAADIADLAPIMAKHM
notes: protein sHIP, S. pyogenes, UniProt Q99XU0, residues Lys3-Met98 with Leu84, Leu88, Tyr95 mutated to alanine and Cys65 to serine; Dimer by AUC and in the crystal; For NMR the protein was double-labelled (15N, 13C), grown in minimal medium; also called sHIPqp mutant; sHIP mutant; source: E. coli Rosetta BL21 (DE3), purified (IMAC, His-tag removed with TEV protease, reverse phase chromatography); not …
In the case of B1, the Kd [1] is reported as 2800 ± 300 nM and the “stoichiometry N” value [2] is reported as 2.

From publication PMC4742562, “Structure and Interactions of a Dimeric Variant of sHIP, a Novel Virulence Determinant of Streptococcus pyogenes” (Frontiers in Microbiology, 2016)
